From the Human Domainome abundance scans (Beltran et al. 2025)
± gives the uncertainty stated by the source.

B1: Nucleosome-remodeling factor subunit BPTF, residues 2862 to 2918; numbered along this chain, Q12830 (parent)
chain: TKKDTKLYCICKTPYDESKFYIGCDRCQNWYHGRCVGILQSEAELIDEYVCPQCQST
B2: Segment polarity protein dishevelled homolog DVL-3, residues 2 to 81; numbered along this chain, Q92997 (parent)
chain: GETKIIYHLDGQETPYLVKLPLPAERVTLADFKGVLQRPSYKFFFKSMDDDFGVVKEEISDDNAKLPCFNGRVVSWLVSA

Variants of: B1
Experiment: abundance fitness (aPCA) (normalised: wild type 0, dead -1); higher = more abundant; growth selection in yeast, the domain comes from the species named
Details: Homo sapiens
Variant TKKDTKLYCICKTPYDESKFYIGCDRCQNWYHGRCVGILQSEAELIDEYVCPQCQSY [T57Y] has an abundance fitness of -0.33 ± 0.28.
In the case of TKKDTKLYCICKTPYDESKFYIGCDRCQNWYHGRCVGILQSEAELIDEYVCPQCQSV [T57V], the abundance fitness is reported as -0.052 ± 0.14.

Variants of: B2
Experiment: as above
Details: Homo sapiens
Variant GEPKIIYHLDGQETPYLVKLPLPAERVTLADFKGVLQRPSYKFFFKSMDDDFGVVKEEISDDNAKLPCFNGRVVSWLVSA [T3P] has an abundance fitness of -0.509 ± 0.092.
GEHKIIYHLDGQETPYLVKLPLPAERVTLADFKGVLQRPSYKFFFKSMDDDFGVVKEEISDDNAKLPCFNGRVVSWLVSA [T3H] gave an abundance fitness of -0.831 ± 0.18.
GENKIIYHLDGQETPYLVKLPLPAERVTLADFKGVLQRPSYKFFFKSMDDDFGVVKEEISDDNAKLPCFNGRVVSWLVSA [T3N] gave an abundance fitness of -0.822 ± 0.18.
GEAKIIYHLDGQETPYLVKLPLPAERVTLADFKGVLQRPSYKFFFKSMDDDFGVVKEEISDDNAKLPCFNGRVVSWLVSA [T3A] gave an abundance fitness of -0.684 ± 0.089.
With GECKIIYHLDGQETPYLVKLPLPAERVTLADFKGVLQRPSYKFFFKSMDDDFGVVKEEISDDNAKLPCFNGRVVSWLVSA [T3C] the abundance fitness was -0.59 ± 0.12.
Work on GEGKIIYHLDGQETPYLVKLPLPAERVTLADFKGVLQRPSYKFFFKSMDDDFGVVKEEISDDNAKLPCFNGRVVSWLVSA [T3G] yielded an abundance fitness of -0.853 ± 0.076.
In the case of GEIKIIYHLDGQETPYLVKLPLPAERVTLADFKGVLQRPSYKFFFKSMDDDFGVVKEEISDDNAKLPCFNGRVVSWLVSA [T3I], the abundance fitness is reported as -0.962 ± 0.25.
Work on GEQKIIYHLDGQETPYLVKLPLPAERVTLADFKGVLQRPSYKFFFKSMDDDFGVVKEEISDDNAKLPCFNGRVVSWLVSA [T3Q] yielded an abundance fitness of -1.05 ± 0.2.
With GEKKIIYHLDGQETPYLVKLPLPAERVTLADFKGVLQRPSYKFFFKSMDDDFGVVKEEISDDNAKLPCFNGRVVSWLVSA [T3K] the abundance fitness was -0.635 ± 0.12.
GEFKIIYHLDGQETPYLVKLPLPAERVTLADFKGVLQRPSYKFFFKSMDDDFGVVKEEISDDNAKLPCFNGRVVSWLVSA [T3F] gave an abundance fitness of -0.452 ± 0.14.
Work on GELKIIYHLDGQETPYLVKLPLPAERVTLADFKGVLQRPSYKFFFKSMDDDFGVVKEEISDDNAKLPCFNGRVVSWLVSA [T3L] yielded an abundance fitness of -0.727 ± 0.083.
Work on GESKIIYHLDGQETPYLVKLPLPAERVTLADFKGVLQRPSYKFFFKSMDDDFGVVKEEISDDNAKLPCFNGRVVSWLVSA [T3S] yielded an abundance fitness of -0.633 ± 0.085.
Variant GEDKIIYHLDGQETPYLVKLPLPAERVTLADFKGVLQRPSYKFFFKSMDDDFGVVKEEISDDNAKLPCFNGRVVSWLVSA [T3D] has an abundance fitness of -0.448 ± 0.11.
For GEMKIIYHLDGQETPYLVKLPLPAERVTLADFKGVLQRPSYKFFFKSMDDDFGVVKEEISDDNAKLPCFNGRVVSWLVSA [T3M], the abundance fitness was -0.683 ± 0.12.
Variant GERKIIYHLDGQETPYLVKLPLPAERVTLADFKGVLQRPSYKFFFKSMDDDFGVVKEEISDDNAKLPCFNGRVVSWLVSA [T3R] has an abundance fitness of -0.665 ± 0.075.
Variant GEEKIIYHLDGQETPYLVKLPLPAERVTLADFKGVLQRPSYKFFFKSMDDDFGVVKEEISDDNAKLPCFNGRVVSWLVSA [T3E] has an abundance fitness of -0.638 ± 0.1.
Variant YETKIIYHLDGQETPYLVKLPLPAERVTLADFKGVLQRPSYKFFFKSMDDDFGVVKEEISDDNAKLPCFNGRVVSWLVSA [G1Y] has an abundance fitness of -0.124 ± 0.21.
Variant QETKIIYHLDGQETPYLVKLPLPAERVTLADFKGVLQRPSYKFFFKSMDDDFGVVKEEISDDNAKLPCFNGRVVSWLVSA [G1Q] has an abundance fitness of -0.035 ± 0.16.
Work on FETKIIYHLDGQETPYLVKLPLPAERVTLADFKGVLQRPSYKFFFKSMDDDFGVVKEEISDDNAKLPCFNGRVVSWLVSA [G1F] yielded an abundance fitness of 0.109 ± 0.23.
DETKIIYHLDGQETPYLVKLPLPAERVTLADFKGVLQRPSYKFFFKSMDDDFGVVKEEISDDNAKLPCFNGRVVSWLVSA [G1D] showed an abundance fitness of -0.205 ± 0.1.
With AETKIIYHLDGQETPYLVKLPLPAERVTLADFKGVLQRPSYKFFFKSMDDDFGVVKEEISDDNAKLPCFNGRVVSWLVSA [G1A] the abundance fitness was -0.084 ± 0.074.
Work on PETKIIYHLDGQETPYLVKLPLPAERVTLADFKGVLQRPSYKFFFKSMDDDFGVVKEEISDDNAKLPCFNGRVVSWLVSA [G1P] yielded an abundance fitness of 0.022 ± 0.24.
TETKIIYHLDGQETPYLVKLPLPAERVTLADFKGVLQRPSYKFFFKSMDDDFGVVKEEISDDNAKLPCFNGRVVSWLVSA [G1T] gave an abundance fitness of -0.198 ± 0.12.
METKIIYHLDGQETPYLVKLPLPAERVTLADFKGVLQRPSYKFFFKSMDDDFGVVKEEISDDNAKLPCFNGRVVSWLVSA [G1M] showed an abundance fitness of -0.074 ± 0.14.
In the case of NETKIIYHLDGQETPYLVKLPLPAERVTLADFKGVLQRPSYKFFFKSMDDDFGVVKEEISDDNAKLPCFNGRVVSWLVSA [G1N], the abundance fitness is reported as -0.444 ± 0.26.
Variant WETKIIYHLDGQETPYLVKLPLPAERVTLADFKGVLQRPSYKFFFKSMDDDFGVVKEEISDDNAKLPCFNGRVVSWLVSA [G1W] has an abundance fitness of -0.222 ± 0.098.
For IETKIIYHLDGQETPYLVKLPLPAERVTLADFKGVLQRPSYKFFFKSMDDDFGVVKEEISDDNAKLPCFNGRVVSWLVSA [G1I], the abundance fitness was -0.324 ± 0.26.
Work on LETKIIYHLDGQETPYLVKLPLPAERVTLADFKGVLQRPSYKFFFKSMDDDFGVVKEEISDDNAKLPCFNGRVVSWLVSA [G1L] yielded an abundance fitness of -0.132 ± 0.11.
Variant CETKIIYHLDGQETPYLVKLPLPAERVTLADFKGVLQRPSYKFFFKSMDDDFGVVKEEISDDNAKLPCFNGRVVSWLVSA [G1C] has an abundance fitness of -0.13 ± 0.13.
Work on KETKIIYHLDGQETPYLVKLPLPAERVTLADFKGVLQRPSYKFFFKSMDDDFGVVKEEISDDNAKLPCFNGRVVSWLVSA [G1K] yielded an abundance fitness of 0.191 ± 0.11.
With RETKIIYHLDGQETPYLVKLPLPAERVTLADFKGVLQRPSYKFFFKSMDDDFGVVKEEISDDNAKLPCFNGRVVSWLVSA [G1R] the abundance fitness was -0.179 ± 0.068.
Work on GETKNIYHLDGQETPYLVKLPLPAERVTLADFKGVLQRPSYKFFFKSMDDDFGVVKEEISDDNAKLPCFNGRVVSWLVSA [I5N] yielded an abundance fitness of -0.916 ± 0.24.
